Data from article doi:10.1101/848226.

Target: mCherry-CARACB(G15V) (barley (Hordeum vulgare))
Experiment: FRET or BRET

GFP-RIC157 (natural protein) was tested, and the GFP lifetime was 2.2 ns.
